According to the supplement of paper PMC10567573:

B1: SOAT1 (parent)
chain: VYYIFERLCAPLFRNIKQEPFSAR
B2: TRIM55 (parent)
chain: YLPTRGGTTMASGGRFRCPSCRHE

Variants of: B1
Assay: protein stability index of a GFP-peptide fusion (GPS, HEK-293T) (PSI 1-6); higher = more stable
Settings: c terminus: a fixed tail appended
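Also: lentivirally expressed fusions sorted by FACS into six bins by GFP to DsRed ratio, PSI derived from sequencing read proportions per bin multiplied by bin number.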

Protein stability index: each site, then its substitutions
I4: Y 2.11; P 1.64; D 1.55; G 1.71; W 1.94; L 2.64; S 2.12; Q 2.65; M 3.78; R 3.07; K 2.81; E 1.82
P11: G 2.08; Q 1.25; C 1.09; E 1.76; L 1.89; D 1.87; Y 1.83; N 1.86; S 1.57; F 1.83; W 2.77; A 1.17; V 2.39; R 2.24; K 3.65; H 3.92; I 2.89
Y2: S 1.87; P 1.44; W 2.26; K 1.5; R 1.59; A 2.52; H 2.26; C 1.3; M 2.83; Q 2.42; I 3.75; F 2.86; G 1.89; N 1.76; T 2.97; E 3.36
Y3: M 1.77; H 1.71; I 3; A 2.26; G 1.22; E 1.5; P 2.12; Q 3.86; F 2.75; W 2.93; K 2.5; D 1.45; V 3.21; C 3.23; N 2.11; S 3.46
C9: G 3.15; K 1.6; R 3.16; S 2.34; W 4.32; P 3.02; L 1.67; H 2.02; N 1.04; I 1.31; F 1.95; T 2.26
R7: H 2.62; D 4.14; I 5.23; W 3.93; M 1.08; Y 2.98; T 1.74; S 4.56
V1: N 2.22; L 2.5; S 2.13; F 2.17; C 1.17; K 1.55; M 2.28; G 1.7; H 1.41; Q 1.32; E 1.3; D 1.44; I 1.82; P 1.32; A 1.74; R 2.24
L12: K 2.57; C 2.21; E 2.07; Y 2.16; G 2.59; P 5.2; M 2.71; F 2.5; N 1.98; H 3.56; I 3.19; T 1.97
F13: P 3.2; I 2.64; N 3.57; S 2.09; T 4.31; A 1.96; R 4.31; H 2
A10: V 3.16; S 2.39; L 3.17; M 1.39; W 2.4; H 3.56; T 2.74; R 1.53; N 3.54
F5: H 1.56; N 1.49; E 2.49; P 2.6; R 2.8; S 1.97; D 1.95; M 1.9; A 1.68; Y 1.81; I 1.64; V 3.45; C 2.46
R14: N 2.44; Q 3.82; A 3.64; P 2.33; F 2.56; E 1.5; K 2.46; D 3.52; I 2.04; C 2.71
L8: C 1.64; P 2.29; K 3.25; R 2.86; T 2; I 1.62; E 3.97; D 3.16
E6: M 2.41; K 2.23; A 2.38; Y 2.53; C 3.08; W 2.59; T 2.61; R 2.09; F 3.18; L 4.01; D 3; P 1.83; N 2.65

Variants of: B2
Assay: as above
Settings: c terminus: a fixed tail appended

Protein stability index, by site and new letter:
R5: A 1.87; W 3.96; V 1.51; Q 2.28
G7: F 1.26; P 2.91; L 1.34; W 1.5
T4: H 1.19; Q 1.7; S 2.1; M 1.26
P3: V 1.97; R 3.49; L 1.32; E 1; I 1
P19: V 1.78; W 3.12; M 1.61; I 1.38; T 2.18; G 2.34; N 2.6; Y 2; R 2.78; S 2.49
T8: Y 4.26; A 1.11; H 2.88; N 1.98; L 4.11; M 4.36; V 2.03; K 2.1; C 3.19; D 1.36; R 1.94; S 1.14
C21: L 2.86; M 2.51; S 3.03; A 3.98; W 2.21; E 4.03; D 3.62
A11: Y 3.34; R 1.37; M 1.18; T 2.46; Q 1.96
M10: W 2.58; G 2.61; K 1.11; C 2.91; N 1.96; E 1.97; A 2.85; T 4.08; Y 1.89
G6: I 1.04; P 1.78; W 1.46; S 1.97; D 2.45; Q 2.15
T9: G 1.26; Q 1.11; N 2.01; A 2.77; R 1.82; F 2.12
R15: Q 1.58; L 1.81; Y 1.44; A 2.02; T 2.53; K 2.05; P 1.49; F 2.76
F16: V 2.71; M 1.74; A 3.43; N 2.33; Y 1.57
G13: I 1.33; P 1.44; D 2.37; H 2.62; T 1.88; A 2.47; E 2.25; K 1.38; F 2.39; R 1; W 1.12
Y1: N 3.07; A 2.59; F 2.51; K 1.46; S 3.15; Q 2.45
C18: H 2.94; V 2.71; Y 2.44; M 2.4; P 3.56; N 3.15
L2: M 1.93; K 1.32; E 2.98; Q 1.02; T 1.38; H 2.78; W 2.7; I 2.22
S12: G 2.1; V 2.42; Y 1.28; P 2.32; E 2.09; H 2.29; D 1.34; I 2.18; A 1.87
G14: K 1.83; Y 1.69; T 2.89; C 3.76; A 2.23; L 1.29
E24: V 2.29; G 1.06; C 2.07; S 1.53; L 1.57; I 1.41
R22: E 4.06; S 3.2; H 2.4; D 2.9; G 2.79; F 2.38; V 2.25; I 2.4; C 1.97
S20: K 2.27; L 2.09; N 1.93; Y 1.46; Q 1.8; T 2.48; P 2.39; R 2.04; M 1.04
H23: S 3.03; P 3.14; V 2
R17: K 1.48; L 2.6; H 2.56; T 2.96; C 1.6; N 2.24
